Reference: a protein production outcome set (Wang et al. 2014)

Experiment: label from the status in PepcDB records
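Further: failed if final PepcDB status was selected cloned or expressed and not failed if soluble or beyond.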

| Sequence | protein production |
| --- | --- |
| MFNKISLEIMKRSALTLMPTVLALAVGMAMPAVQAAINSDASVVGTESQWWNTYKVTLTNNGNQPVELRDASIAFDTNLSLSTPSWSAQGISYPSMSFSSNAQGSVFSNRLTLSFDQGSWVKTQLLPGASIDLTLGVSGVLELSLLQSTIALETDGEVEPGEPEISLELASPVQGAEFIEGQTVAIVANVTATNTTVKTVTFLVDGEQIALLEQAPFQASWTAAGEGAHSIKAIVEDASGLLKEQAVRITVKAEEIDPPVEPEVPVAPVIELTNPRNGQSVFLGKVTTLAANATDENNDLTAVEFLVNGESIGRVTQAPYQLAWTPVALGQYTIEAIAYDAAGHQTQTPMVTVNAKEMGTGNLSCDIKQIYREDGTECMGDDHPRRIIGYYTSWRTGKNGLPAYLAGDLPWEKLTHINYAFASINKSDFSMQVDDSATKMTWENVPGAEMDPSLPYQGHFNLLSKFKKQYPDVKTLISVGGWAETGGFYPMTTDLASCSVNMEGIKAFNKSAVDFIRQYDFDGVDIDYEYPSSMKDSGNPVDFEQSNKCRGQLWDNYMVMMTELRKALDKAGEEDGRRYMLTIASPSSAYLLRGMQDFAMQDVLDYVNIMSYDLHGTWNEFVGPQAALFDDGKDAELAKWGVYTTAEYQGIGYLNQAWTHHFFRGAFKPSQINMGIPYYTRGWQGVSGGDKGLWGRAVEPNQSSCPEGTTVCGWGAEGTDNIWHDVDANGNEIKAGVVPMWHAMNLMHAEKLGIDGMPSYGPAWGMDPNNPKHLIEGKYERVWSQELQTAWLWNDTKKVFLSIEDKDSLKPKLDYIVDNGLGGMMIWEMAGDYSYDAVKREYVIGSDMTSYAHEVFAAAKPMDIRHNDLPQPDSVIDVTVSTTEWPEGDSNYPINPKLVFTNHSNVAIPGGSTIEFLMPTSSGDIVKDWSGAGLKVIESGHTGSNFSVNGEKKLFHKVAVTLRSTETIPAGGEYSVDMVYYTPVSGVANGVRFIVGNETVGLKKDFPTLPAFEGATDGGNGNEGGAGQSCADAGINPNGLKVYPEFPRGDHAAGGDQLIHNGSVWQANWWTNSTPSSADASWKAVCKI | failed |
| MFNKKKTIASLIVLSSLASQIALTPISALADTHDTNNIALLQNTNENVPYKYTSTLTFPTLTNQTQEDYKLEIKLALPSGMNYTDLQVSVGGEDITNQVGTTSFDNSTNTVTFKFDKVTSWDSLSKAKVKFDWKTSYSGEGGEAKIDSLVATATATSEDKAGNKSTSTGSLKPKDISAPVVKAEETEITYSPGSDVTEEQFLTDIHASVTDNYDSTISLTSNFTSAVNLAVSGDYSVNVQATDKAGNVSNTLNVTVHVSTPAPVAGANITVNHLDSNGNKIAESDTLTGVVNSNYQSESKKITGYTLETTPTNATGTFTDTPQTVDYIYKKDTVTPTPITVNPVEPVKPVNPVVNKPVTVKPANDNTNPSTSNSVEKTTYSSLPTTGDTDQSKSSTIFGALLLLISAPLLLFKKK | failed |
| MFNKKPLADTTARRPSTGAQAKIYSRDNVARYSERARQRRRSHTIRHVALIVVLGVLLSATTAAGLWFATIMGKLGDSNVITDNLRRVLVDTDEAKDPFYVLLLGTDGRPGEDTYRADSIILARIDPTQKQATLISVPRDTKVEYKGETMKINACHTVGGAEAMVEAVNELCGVQISHYAEVSFDGMQALIDSVGGIDINATDDVDDPEHLDIKITAGQQHMDGATALTYARCRYTYADGDYTRMRHQRQVLGALANQILNNFDATKIFGLVNSLSDMLVTDMSVQDIVATVNAMRGMDVDGIYSANLPSYADDSTMIDGVSYVFVYEDELKEMMERVDAGKDPKGPNTMGLSDGSSSTIGDLNNNTSDDYANGTATSSVSSDDSDDSSDSSDSDYYEEPTGDGNGYEANY | failed |
| MFNKVAFMNIPMMDLIMIVIAIIITIGSFLFIAYLIFKYSKIKKQVKIIREVKINLPKMLKSNMIKNSFLIISLLCFYFGMLYIAGELVISHILFIAICWIVVFLYIIIKGETRGYICEEGLLVSGVLYSWKEFKDVKIEDNYIILTTPIHKIVIKKEKGVENILKNYLKRN | failed |
| MFNKVIMVGRLTRNVELKYLPSGSAAATIGLATSRRFKKQDGTLGEEVCFIDARLFGRTAEIANQYLSKGSSVLIEGRLTYESWMDQTGKKNSRHTITADSLQFMDKKSDNPQANAMQDSIMHENSNNAYPANHNAPSQDPFNQAYAQNAYAKENLQAQPSKYQNSVPEINIDEEEIPF | failed |
| MFNRRIALICLIVATLSACGGKTKEELYAEAVKELDKGNANGAIVLLKNAVEKDQNYFDARYKLAKAYMTVGKFEQAEKEFQKALRQNPSNPEIRLDLAKLYNSINKPDESIAEAKAYLSARAGSADALEVIGTSYGQKKMFDEAEKYLKESLQAEPARASAMLQLAKVYLATKREQEGMGLLNEIVRKDPKNTKAYYLAAFYEGYRGNSEKALEYYQKIMQADPDDANAAFRIGMMHISKGEVDKAERLADDLIRKASKRPEGHQLKGIALYTRKNYDQAITELQGVVKNYQNPGAYYYLGLSYYQRNDLESALSQFRKVIDLNPKHLQARLMSATVLLQQKRTDDAITEAKRVIELDDKNAFAHNVLGSAYIAKGMTDEAVRELNRAIELEPKLVGAHMKKGIVNLARGKRAEGEEELETAVKVAPDVLNSRYLLASYYMRLNKQARAIEVLRAGLRGGKQDAPLYNTMAAAAFADKREKDGILYLQKAREVDQAYLPASFNLASYYISKKDNGRAAGLFNEILKRDPANLKALIGLGAISESEGKAQEAVAYYTKAKATKDPVGYLSLASYYIRKKEAPKALALANEGLKGAPNNAALLELKGGLLAADKKYAEALKVYDELEKVAPTRAIPLKIGALVVTKNIPKAVEQAQKVVAANPKSAAGHLVIASIYESQKDYDRAISAVRSGIAVEPGNLRASMALGGIYEKKRDFARAIAAYDDILRKNPKNIPALFAKGAAFDQSGKKKEAAGIYRAVLKIAPDFVPALNNLAYLAAEGYGNKSEALSLASRANKLQPNNAGVMDTYGYALLINGKRTASVRVLEKAVSLLPNNPAVHYHLAMAYRDMGDRAKASVSVQKSLQYGEFPESAAARKLLAELKR | failed |
| MFPYKIVDDVVILMPNKELNIENAHLFKKWVFDEFLNKGYNKIFLVLSDVESIDSFSLGVIVNILKSISSSGGFFALVSPNEKVERVLSLTNLDRIVKIYDTISEAMEEVRRK | not failed |
| MFQIGEHNMILIYKLTLTKLTEDELKKDFATIPSWATHLDLSNNRLGETSNEELIRVFAKIPGWISHIKLRFNNLGQKNGKDLAKAFAKIPISVTTLDLGSNQLGKKSGEELANAFAGIPTSVTRLILSQNELYKRTGGELATAFAKIPSSVTHLVLVNNGLGEKNGKELATAFANIPSSVTTLDLALNDLSKIKSTELAVIFTKIPTSVTQLDLSHNNLNKKSGKNLAKIFANIPTSVTNLNLSCNELGKKSGKGLAAAFAKIPTSVTDLNIEDNDLDNRTGKELAMAFAHIPAFVNTLRLGDNNLGNKSGEELAEIFAKIPLSVTSLDLRYNELGKRNGKELAIAFAKIPSSVTNLNLKFNHLGKITGEELAMAFANIPTNVDSLVLANNELGAKSGEELAKIFSKIPASITSLNMGNDWFAVIEKLSQQKMVLSTITHVVIDYSSAQEHSAKLKLLATVFPNLNKVTFMDIHGNNALAGQNPIEEAKWLKLCGIKNSVPSLLSQALFFVAKNKEHRSIQDYPSLLPKELTDSISSLLKC | failed |
| MFQLRKKMTRKQLALLSAGVLTCVVGGSYLIMNHQQQEIVSSVNKVKALTIKEAMEQGKDISLTLAGEVTANNSSKVKIDSSKGEVKEVFVKKGDVVKVGQPLFSYETSQRLTAQSSEFDVQTKANQLQVAKTNAALKWETYNRKVNEINTLKSRYNTAPDESLLEQIRSAEDSVSQALSDAKTADSDVKTAQIELDKANATATTEKGKLEYDTVKSDTAGTIVSLNTDLPNQSKSKKENETFMEIIDKSKMLVKGNISEFDRDKLKIGQKVEVIDRKDNSKKWTGKVTQVGNLKAEEKGQGQGQGGNDQQDNPNQAKFPYVIELDQSDKQPLIGSHTYVNVLNNVPEAGKIVLKETFTMAENGKTYVWKVDKNKVKKQEIKTKPFSKGYVEVTSGLTMQDKIAQPLPGMKDGMEVGSIVKP | failed |
| MFRDEDETTPPRAREVERLKKRLYRLKYLAHKYKRAEVVQNALLELSHIATQVSSLEEFYLGVHHHLKQLISADNFFIATLDVNSGAISVPFFADEKDAHPSQLYPEQSLSTLLQQGLTGYVFRTGQTLLCDESKVDELVNAEEIVNLGSPCHLWLGVPIKHEDIVTAVLVVQTYDTNVSYGDIEVELMTFICHHITGVMERLKHQEQLEQAIQQ | failed |
| MFRGVAPPPERSSTPLPPTMTTTPEPGAALLLLIVSQLPGIGPSRARALLNRFGATPALLEADYDALRQIPGIGETTARETAERLANPAWRDKAREKGENQLARAERLEASVITILDPAYPPLLKEIYDPPLLLFARGNPEALCVPSLAVVGTRKATAYGKQATEFICREMVNNGYAILSGLAYGIDMMAHRAAVESNGVTIAVLGCGIDRIYTDPAGRLWPRILERGAIVSEEWIGIKPEPGNFPRRNRLIAGLAQGTLIVESDIKGGSMITASYALEQNREVFAIPGSIFSGTSRGTNYLIQQNHAKPVFSAEDILAELNPAQHPALKTHPEASEPFDLNIEESCIVEALQSGAMHIDLIAEKTGLKIDALLVHLFELELKRIIEQEPGQIFRKRTP | failed |
| MFRSKRYQMVAYAITGSALWGLSGTVSSILFSRYGMPFSTLVTIRMVFSGLILLAAGRGFVGKKDLPMFLVFAIPGLFGVQILYLATISFSNAPVATLLQFLFFPMVAVYDYITIRSLTVSSLILALIFSVAGIYELTTGFPLGGTALRISLTALILGLATAATAALYTVTSARIVKEYGGLRTVASGMMVGGLVSLPLGSFSGVPYFHGLGQADVIPVLALTIFVIVFGTSMAFYLYINSMRYISPVEAAVSGTFEPVAAAMSSYLLLGIKLSAMQYLGGALIVISILVIVISKNRRG | failed |
| MFRSLNSYLIDFTGLVVISVLICLVSAGGSLASGLPFQIPASVLQLNTIFISILIEALPFVLIGVLIAGFIQIFVTEEHIRSLFPKNRFSGVIVSCLLGACFPACECGIVPIVRRLVSKGVPIYAGVGFLLTGPLINPIVVLSTYMAFGNDLRMAVLRVAVGFAAAVIIAFAISMMFRSSQLKTESRQTAAHCAHSGRRSPFSEKLFDMLKHAVDEFFDMGRFLIIGALVAALVQTYLPLKSLFVFGGGMLDSALVMMGLAYFLSLCSEADAFIGASFTNLFPSSSILAFLVYGPMLDLKNTVMMLHAFKPKFVICLSVLITVVVFVCIKVVSLL | failed |
| MFRSSRRQAAFDFDLLMPETPARRTARAANPDRDVVDAEFVTIKENRVRQPGNDNRGAARRQMVKPSVTIGALGLAFIGWLDRRLSRLSADAYSALVAGLAIFVFVCSGGLSVVVPETSAVAASVNPLAISHVTITPQEAGGMDILLINGIVENNGGNLEEVPALRADLFAAKGQLVASMVIEPPVKEMQPGFSHGFSAKLRHPGGKTPEIKLSFVEAGASAR | failed |
| MFRVTGTLSAASSPAVAAASFSAALRLSITPTLAIASPPHLRWFSKFSRQFLGGRISSLRPRIPSPCPIRLSGFPALKMRASFSSGSSGSSASREILVQHLLVKNNDVELFAELQKKFLDGEEMSDLAAEYSICPSKKDGGILGWVKLGQMVPEFEEAAFKAELNQVVRCRTQFGLHLLQVLSEREPVKDIQVEELHSKMQDPVFMDEAQLIDVREPNEIEIASLPGFKVFPLRQFGTWAPDITSKLNPEKDTFVLCKVGGRSMQVANWLQSQGFKSVYNITGGIQAYSLKVDPSIPTY | failed |
| MFRWERSIPLRGSAAALCNNLSVLQLPARNLTYFGVVHGPSAQLLSAAPEGVPLAQRQLHAKEGAGVSPPLITQVHWCVLPFRVLLVLTSHRGIQMYESNGYTMVYWHALDSGDASPVQAVFARGIAASGHFICVGTWSGRVLVFDIPAKGPNIVLSEELAGHQMPITDIATEPAQGQDCVADMVTADDSGLLCVWRSGPEFTLLTRIPGFGVPCPSVQLWQGIIAAGYGNGQVHLYEATTGNLHVQINAHARAICALDLASEVGKLLSAGEDTFVHIWKLSRNPESGYIEVEHCHGECVADTQLCGARFCDSSGNSFAVTGYDLAEIRRFSSV | failed |
